According to PMC3436766, “Distinct and Contrasting Transcription Initiation Patterns at Mycobacterium tuberculosis Promoters”:

Experiments:
[1] = biological target: T1, RNA polymerase holoenzyme with sigma A (RNAP-σA) (Mycobacterium smegmatis SM07, UniProt A0QSL8;P60281;A0QS66;A0QWT1;A0QW02 1-350;1-1169;1-1317;1-107;1-466); assay: EMSA; details: protein: native; chain copies: 2;1;1;1;1; label: 5'-32P on one strand; blunt
[2] = biological target: T1, RNA polymerase holoenzyme with sigma A …; assay: EMSA; closed complex (KB), on ice 20 min; details: protein: native; chain copies: 2;1;1;1;1; label: 5'-32P on one strand; blunt

B1: PgyrB1 (dsDNA)
DNA 1: GGTAAAAACGAGGCCGAGCACTCGGCCCTGGCGCCCGATCACGGTACAGTGGTGTGCGACCCCCTGCGGCGACTC
DNA 2: GAGTCGCCGCAGGGGGTCGCACACCACTGTACCGTGATCGGGCGCCAGGGCCGAGTGCTCGGCCTCGTTTTTACC
For B1, the Kd [1] was 68 ± 12.2 x 10^7 M (as printed; exponent implausible, probably nM) and the Ka [2] was 2.1 ± 0.03 10^7 M^-1.
